What was measured:
Assay in all cases: purified protein
c1ccc(OCC2CO2)cc1 = details: 50 mM Tris pH 8.0, 30 °C, 30 min, 2 μg protein
c1ccc(OC[C@@H]2CO2)cc1 = details: 50 mM Tris pH 8.0, 30 °C, 30 min, 2 μg protein
c1ccc(OC[C@H]2CO2)cc1 = details: 50 mM Tris pH 8.0, 30 °C, 30 min, 2 μg protein
c1ccc(COCC2CO2)cc1 = type: biochemical, Yarrowia lipolytica; details: 50 mM Tris pH 8.0, 30 °C, 30 min, 2 μg protein
c1ccc(COC[C@@H]2CO2)cc1 = type: biochemical, Yarrowia lipolytica; details: 50 mM Tris pH 8.0, 30 °C, 30 min, 2 μg protein
c1ccc(COC[C@H]2CO2)cc1 = type: biochemical, Yarrowia lipolytica; details: 50 mM Tris pH 8.0, 30 °C, 30 min, 10 μg protein

Q: For Ylehd (Yarrowia lipolytica), which Km (c1ccc(OCC2CO2)cc1) is on record?
A: The Km was 600 ± 9 µM.

Q: What about the kcat (c1ccc(OCC2CO2)cc1) of the same substance?
A: Its kcat is 7.34 s⁻¹.

Q: What about the kcat/Km (c1ccc(OCC2CO2)cc1) of the same substance?
A: Its kcat/Km is 12200 M⁻¹ s⁻¹.

Q: What about the Km (c1ccc(OC[C@@H]2CO2)cc1) of the same substance?
A: The Km was 930 ± 71 µM.

Q: And the kcat (c1ccc(OC[C@@H]2CO2)cc1)?
A: Its kcat is 15.7 s⁻¹.

Q: What about the kcat/Km (c1ccc(OC[C@@H]2CO2)cc1) of the same substance?
A: Its kcat/Km is 16600 M⁻¹ s⁻¹.

Q: And the Km (c1ccc(OC[C@H]2CO2)cc1)?
A: The Km was 1320 ± 45 µM.

Q: What about the kcat (c1ccc(OC[C@H]2CO2)cc1) of the same substance?
A: The kcat was 33.8 s⁻¹.

Q: What about the kcat/Km (c1ccc(OC[C@H]2CO2)cc1) of the same substance?
A: The kcat/Km was 25500 M⁻¹ s⁻¹.

Q: What about the Km (c1ccc(COCC2CO2)cc1) of the same substance?
A: The Km was 150 ± 2 µM.

Q: And the kcat (c1ccc(COCC2CO2)cc1)?
A: Its kcat is 5.73 ± 0.54 s⁻¹.

Q: What about the kcat/Km (c1ccc(COCC2CO2)cc1) of the same substance?
A: The kcat/Km was 38200 ± 1080 M⁻¹ s⁻¹.

Q: And the Km (c1ccc(COC[C@@H]2CO2)cc1)?
A: Its Km is 270 ± 24 µM.

Q: And the kcat (c1ccc(COC[C@@H]2CO2)cc1)?
A: The kcat was 12 ± 0.97 s⁻¹.

Q: What about the kcat/Km (c1ccc(COC[C@@H]2CO2)cc1) of the same substance?
A: The kcat/Km was 44700 ± 870 M⁻¹ s⁻¹.

Q: And the Km (c1ccc(COC[C@H]2CO2)cc1)?
A: Its Km is 800 ± 10 µM.

Q: What about the kcat (c1ccc(COC[C@H]2CO2)cc1) of the same substance?
A: The kcat was 3.45 ± 0.089 s⁻¹.

Q: And the kcat/Km (c1ccc(COC[C@H]2CO2)cc1)?
A: Its kcat/Km is 4310 ± 70 M⁻¹ s⁻¹.
